{
  "source": "patent US20160130654A1",
  "about": "“SYSTEMS AND METHODS FOR DIAGNOSING AND TREATING CANCER” (THE TRANSLATIONAL GENOMICS RESEARCH INSTITUTE, priority 2013, published 2016)",
  "molecules": {"B1": {"name": "TWEAK: Human recombinant tumor necrosis factor-like weak inducer of apoptosis, purchased from PeproTech (protein, UniProt O43508 94-249, looked up)", "Tumor necrosis factor ligand …": "SAPKGRKTRARRAIAAHYEVHPRPGQDGAQAGVDGTVSGWEEARINSSSPLRYNRQIGEFIVTRAGLYYLYCQVHFDEGKAVYLKLDLLVDGVLALRCLEEFSATAASSLGPQLRLCQVSGLLALRPGSSLRIRTLPWAHLKAAPFLTYFGLFQVH"}},
  "assay_type_in_all_cases": "cell-based, Human",
  "key": {"H1975 cells": {"system": "H1975 cells", "experiment": "Clonogenic (colony-formation) assay", "protocol": "(§1) FIGS. 6A-6F illustrate that TWEAK-induced NSCLC cell survival is dependent on Mcl-1 expression. H1975 (FIG. 6A) and H2073 (FIG. 6B) cells were transfected with luciferase (siCont) or siRNAs targeting Mcl-1. Total lysates were collected 72 hours post-transfection and immunoblotted for Mcl-1 and alpha-tubulin. H1975 (FIGS. 6C and 6E) and H2073 (FIGS. 6D and 6F) cells transfected with control or siRNA constructs targeting Mcl-1 were exposed to 1 μM cisplatin for 24 hours (FIGS. 6C and 6D) or 2Gy ionizing radiation (FIGS. 6E and 6F)±pre-incubation with TWEAK (100 ng/mL). Cells were sparsely seeded into 6-well dishes and allowed to grow for 7 days prior to staining with crystal violet and colony counting. A colony was defined as containing at least 50 cells. Bars represent average of three independent wells±standard error with the non-treated (first bar) set to 1. * represents a p value <0.05 by ANOVA with Bonferroni posttest.\nH1975 (FIG. 7A) and H2073 (FIG. 7B) cells were transfected with luciferase (siCont) or siRNA targeting Bcl-xL. Total lysates were collected 72 hours post-transfection and immunoblotted for Bcl-xL and alpha-tubulin. H1975 (FIGS. 7C and 7E) and H2073 (FIGS. 7D and 7F) cells transfected with control or siRNA construct targeting Bcl-xL were exposed to 1 μM cisplatin for 24 hours (FIGS. 7C and 7D) or 2Gy ionizing radiation (FIGS. 7E and 7F)±pre-incubation with TWEAK (100 ng/mL). Cells were sparsely seeded into 6-well dishes and allowed to grow for 7 days prior to staining with crystal violet and colony counting. A colony was defined as containing at least 50 cells. Bars represent average of three independent wells±standard error with the non-treated (first bar) set to 1. * represents a p value <0.05 by ANOVA with Bonferroni posttest.\nH1975 (FIGS. 11A and 11B) cells were pre-incubated with TWEAK (100 ng/mL), (FIG. 11A) EU-5148 (10 μM), (FIG. 11B) ABT-737 (10 […]) or both drug and TWEAK prior to exposure to 2Gy ionizing radiation. Cells were sparsely seeded (125 cells) into 6-well dishes and allowed to grow for 7 days prior to staining with crystal violet and colony counting. A colony was defined as containing at least 50 cells. Bars represent average of three independent wells±standard error with the non-treated (first bar) set to 1. * represents a p value <0.05 by ANOVA with Bonferroni posttest.\nFIGS. 12A-12C illustrate that pharmacologic inhibition of Mcl-1 abrogates TWEAK-mediated cell survival. […]\nObservations of colony forming capacity following cytotoxic insult were performed as previously described (Franken N A, Rodermond H M, Stap J, Haveman J, van Bree C. Clonogenic assay of cells in vitro. Nat Protoc. 2006; 1:2315-9). […] Cells were then trypsinized, quantified, and equally dispersed in triplicate in 6-well cell culture dishes at 250 cells per well. […]"}, "H2073 cells": {"system": "H2073 cells", "experiment": "Clonogenic (colony-formation) assay", "protocol": "as §1, with “Bars represent average of three independent wells±standard error with the non-treated (first bar) set to 1. * represents a p value <0.05 by ANOVA with Bonferroni posttest.” left out\nObservations of colony forming capacity following cytotoxic insult were performed as previously described (Franken N A, Rodermond H M, Stap J, Haveman J, van Bree C. Clonogenic assay of cells in vitro. Nat Protoc. 2006; 1:2315-9). […] Cells were then trypsinized, quantified, and equally dispersed in triplicate in 6-well cell culture dishes at 250 cells per well. […] Apparent colonies were counted. […] Statistical significance, defined as a p value <0.05, was determined by ANOVA analysis with Bonferroni posttests in Graphpad Prism."}, "[1]": {"system": "cleaved-PARP in H1975 cells", "experiment": "Cleaved-PARP immunoblot (apoptosis)", "protocol": "FIGS. 8A and 8B illustrate that depletion of Mcl-1 abrogates TWEAK-induced protection from cell death induced by DNA damage. H1975 cells were transfected with either siRNA targeting luciferase (control) or Mcl-1. Cells were exposed to 5 uM cisplatin (FIG. 8A) or 8Gy radiation (FIG. 8B) for 0, 4 or 24 hours±pre-incubation with TWEAK (100 ng/mL). Total cell lysates were prepared and immunoblotted for cleaved-PARP (cPARP) and GAPDH as a loading control. All blots were run in duplicate.\nMcl-1, Bcl-2, Bcl-xL, phospho-p65 (Serine residue 536), Bak, GAPDH, and cleaved-PARP antibodies were obtained from Cell Signaling Technology Inc. (Beverly, Mass.), and α-tubulin antibody was obtained from Millipore (San Diego, Calif.). Human recombinant TWEAK was purchased from PeproTech (Rock Hill, N.J.), and cisplatin was obtained from TZS Chemical via BIOTANG Inc. (Waltham, Mass.). The Mcl-1-specific inhibitor EU-5148 was kindly provided by Eutropics Pharmaceuticals (Cambridge, Mass.). ABT-737 was obtained from Selleck Chemicals (Houston, Tex.). […]"}, "[2]": {"system": "Mcl-1 and Bcl-xL mRNA in H1975 cells", "experiment": "qPCR of Mcl-1 and Bcl-xL mRNA after TWEAK", "conditions": "H1975, TWEAK 100 ng/mL, maximal at about 6 hours", "protocol": "(§2) FIGS. 5A and 5B illustrate that TWEAK exposure enhances Mcl-1 and Bcl-xL mRNA expression. Total RNA was collected from (FIG. 5A) H1975 and (FIG. 5B) H2073 cells treated with 100 ng/mL TWEAK for the indicated time points. mRNA expression of Mcl-1 and Bcl-xL were determined by qPCR with histone H3.3 mRNA levels used as endogenous control. Bars represent the average±standard error of triplicate qPCR reactions. * represents a p value <0.05 compared to no treatment (of the respective gene) by Student's t test. All assays were run in duplicate.\n(§3) Human lung adenocarcinoma cell lines H1975 and H2073 (ATCC, Manassas, Va.) were maintained in RPMI 1640 media (Invitrogen, Carlsbad, Calif.) plus 10% heat-inactivated fetal bovine serum (FBS) in a 37° C., 5% CO2 atmosphere. […]\n(§4) mRNA expression was determined by qPCR as previously described (Fortin Ensign S P, Mathews I T, Eschbacher J M, Loftus J C, Symons M H, Tran N L. The Src homology 3 domain-containing guanine nucleotide exchange factor is overexpressed in high-grade gliomas and promotes tumor necrosis factor-like weak inducer of apoptosis-fibroblast growth factor-inducible 14-induced cell migration and invasion via tumor necrosis factor receptor-associated factor 2. J Biol Chem. 2013; 288:21887-97). […]"}, "[3]": {"system": "Mcl-1 and Bcl-xL mRNA in H2073 cells", "experiment": "qPCR of Mcl-1 and Bcl-xL mRNA after TWEAK", "conditions": "H2073, TWEAK 100 ng/mL, maximal at about 6 hours", "protocol": "as §2, §3, §4"}, "[4]": {"system": "phosphorylated p65, Mcl-1, Bcl-xL in H2073 cells", "experiment": "Immunoblot after TWEAK treatment", "conditions": "H2073, TWEAK 100 ng/mL", "protocol": "(§5) FIGS. 4A-4C illustrate that TWEAK induces Mcl-1 in NSCLC cell lines in an NF-κB-dependent manner. Total cell lysates were prepared from serum-reduced (FIG. 4A) H1975 and (FIG. 4B) H2073 cell lines treated with TWEAK for the indicated times and immunoblotted with the indicated antibodies: Mcl-1, Bcl-xL, and phosphorylated-p65 (Ser536). Tubulin was used as a loading control. (FIG. 4C) Serum-reduced H2073 cells transfected±IkBα mutant were treated with TWEAK for 24 hours. Cells were harvested, total cell lysates were prepared and immunoblotted with the indicated antibodies to both Mcl-1 and phospho-p65. All blots were run in duplicate and tubulin was used as a loading control.\n(§6) Human lung adenocarcinoma cell lines H1975 and H2073 (ATCC, Manassas, Va.) were maintained in RPMI 1640 media (Invitrogen, Carlsbad, Calif.) plus 10% heat-inactivated fetal bovine serum (FBS) in a 37° C., 5% CO2 atmosphere. SU-DHL10 (Deng J, Carlson N, Takeyama K, Dal Cin P, Shipp M, Letai A. BH3 profiling identifies three distinct classes of apoptotic blocks to predict response to ABT-737 and conventional chemotherapeutic agents. Cancer Cell. 2007; 12:171-85), Bcl-2 1863 and Mcl-1 1780 cell lines (Ryan J A, Brunelle J K, Letai A. Heightened mitochondrial priming is the basis for apoptotic hypersensitivity of CD4+CD8+ thymocytes. Proc Natl Acad Sci USA. 2010; 107:12895-900) were maintained in RPMI 1640 plus 10% FBS with 50 μM β-mercaptoethanol added to 1863 and 1780 cells. In all assays treated with TWEAK, cells were cultured in reduced serum (0.5% FBS) for 16 hours prior to stimulation with TWEAK at 100 ng/mL in RPMI+0.1% bovine serum albumin (BSA) for the indicated times.\n(§7) Mcl-1, Bcl-2, Bcl-xL, phospho-p65 (Serine residue 536), Bak, GAPDH, and cleaved-PARP antibodies were obtained from Cell Signaling Technology Inc. (Beverly, Mass.), and α-tubulin antibody was obtained from Millipore (San Diego, Calif.). Human recombinant TWEAK was purchased from PeproTech (Rock Hill, N.J.), and cisplatin was obtained from TZS Chemical via BIOTANG Inc. (Waltham, Mass.). The Mcl-1-specific inhibitor EU-5148 was kindly provided by Eutropics Pharmaceuticals (Cambridge, Mass.). ABT-737 was obtained from Selleck Chemicals (Houston, Tex.). Immunoblot analysis was performed as previously described (Whitsett T G, Cheng E, Inge L, Asrani K, Jameson N M, Hostetter G, et al. Elevated expression of Fn14 in non-small cell lung cancer correlates with activated EGFR and promotes tumor cell migration and invasion. Am J Pathol. 2012; 181:111-20; Tran N L, McDonough W S, Savitch B A, Sawyer T F, Winkles J A, Berens M E. The tumor necrosis factor-like weak inducer of apoptosis (TWEAK)-fibroblast growth factor-inducible 14 (Fn14) signaling system regulates glioma cell survival via NFkB pathway activation and BCL-XL/BCL-W expression. J Biol Chem. 2005; 280:3483-92)."}, "[5]": {"system": "phosphorylated p65, Mcl-1, Bcl-xL, Bcl-2 in H1975 cells", "experiment": "Immunoblot after TWEAK treatment", "protocol": "as §5, §6, §7"}},
  "data": [
    {"molecule": "N.N.[Cl][Pt][Cl]", "note": "[cisplatin, reference compound]", "values": [
      {"measurement": "cell survival (colony formation)", "setting": "H1975 cells; H1975, 1 μM cisplatin", "value": "significantly reduced NSCLC cell survival"},
      {"measurement": "cell survival (colony formation)", "setting": "H2073 cells; H2073, 1 μM cisplatin", "value": "significantly reduced NSCLC cell survival"},
      {"measurement": "protein expression of cleaved-PARP", "setting": "[1]; H1975, 5 uM cisplatin, 0, 4 or 24 hours", "value": "induces protein expression of cleaved-PARP over time"}
    ]},
    {"molecule": "CN(C)CC[C@H](CSc1ccccc1)Nc1ccc(S(=O)(=O)NC(=O)c2ccc(N3CCN(Cc4ccccc4-c4ccc(Cl)cc4)CC3)cc2)cc1[N+](=O)[O-]", "note": "[ABT-737]", "values": [
      {"measurement": "effect on TWEAK-induced cell survival", "setting": "H1975 cells; H1975, drug 10 μM plus TWEAK 100 ng/mL, 2Gy ionizing radiation", "value": "lesser effect on TWEAK-induced cell survival"},
      {"measurement": "sensitivity to radiation (cell survival, colony count)", "setting": "H1975 cells; H1975, drug 10 μM pre-incubation, 2Gy ionizing radiation", "value": "did sensitize H1975 cells to radiation"}
    ]},
    {"molecule": "B1", "values": [
      {"measurement": "cell survival after cisplatin or radiation with TWEAK pre-treatment", "setting": "H1975 cells; H1975, TWEAK 100 ng/mL, 1 μM cisplatin or 2Gy", "value": "significantly attenuated the effects of either cisplatin or radiation"},
      {"measurement": "cell survival after cisplatin or radiation with TWEAK pre-treatment", "setting": "H2073 cells; H2073, TWEAK 100 ng/mL, 1 μM cisplatin or 2Gy", "value": "significantly attenuated the effects of either cisplatin or radiation"},
      {"measurement": "maximal increase of Mcl-1 and Bcl-xL mRNA levels", "setting": "[2]", "value": 10, "unit": "fold"},
      {"measurement": "maximal increase of Mcl-1 and Bcl-xL mRNA levels", "setting": "[3]", "value": 50, "unit": "fold"},
      {"measurement": "induction of cleaved-PARP with TWEAK pretreatment", "setting": "[1]; H1975, TWEAK 100 ng/mL, 5 uM cisplatin or 8Gy radiation, 4 or 24 hours", "value": "completely abrogates the induction of cleaved-PARP"},
      {"measurement": "phosphorylated p65 (P-p65)", "setting": "[4]", "value": "clear induction"},
      {"measurement": "protein expression of Mcl-1 and Bcl-xL over time", "setting": "[4]", "value": "incremental increases"},
      {"measurement": "phosphorylated p65 (P-p65)", "setting": "[5]; H1975, TWEAK 100 ng/mL", "value": "clear induction"},
      {"measurement": "protein expression of Mcl-1 and Bcl-xL over time", "setting": "[5]; H1975, TWEAK 100 ng/mL", "value": "incremental increases"},
      {"measurement": "protein expression of Bcl-2", "setting": "[5]; H1975, TWEAK exposure", "value": "up-regulated"}
    ]}
  ]
}
